Results: EP1073891B1, “METHOD OF PREDICTING RECEPTOR MODULATING ACTIVITY” (Duke University, priority 1998, dated 1999)

What was measured:
ERα = target: T1, ERα (Homo sapiens, UniProt P03372); assay: Phage ELISA / fingerprint on ER immobilized on biotinylated ERE (Examples 2.3-2.5); assay type: binding; set-up: purchased PanVera Corporation, Madison, WI; key to binding activity, ERα and buffer / binding activity, ERα and estradiol / binding activity, ERα and tamoxifen / binding of peptide, Class Specific Fingerprint on ERα: semiquantitative scale of 0 to 7+; 1+: semiquantitative scale of 0 to 7+; 2+: semiquantitative scale of 0 to 7+; 3+: semiquantitative scale of 0 to 7+; 4+: semiquantitative scale of 0 to 7+; 5+: semiquantitative scale of 0 to 7+; 6+: semiquantitative scale of 0 to 7+; semiquantitative scale of 0 to 7+; details: for binding activity, ERα and estradiol: ERα and estradiol (1 µM); for binding activity, ERα and tamoxifen: ERα and tamoxifen (4-OH tamoxifen, 1 µM)
T1 sequence (P03372 1-595): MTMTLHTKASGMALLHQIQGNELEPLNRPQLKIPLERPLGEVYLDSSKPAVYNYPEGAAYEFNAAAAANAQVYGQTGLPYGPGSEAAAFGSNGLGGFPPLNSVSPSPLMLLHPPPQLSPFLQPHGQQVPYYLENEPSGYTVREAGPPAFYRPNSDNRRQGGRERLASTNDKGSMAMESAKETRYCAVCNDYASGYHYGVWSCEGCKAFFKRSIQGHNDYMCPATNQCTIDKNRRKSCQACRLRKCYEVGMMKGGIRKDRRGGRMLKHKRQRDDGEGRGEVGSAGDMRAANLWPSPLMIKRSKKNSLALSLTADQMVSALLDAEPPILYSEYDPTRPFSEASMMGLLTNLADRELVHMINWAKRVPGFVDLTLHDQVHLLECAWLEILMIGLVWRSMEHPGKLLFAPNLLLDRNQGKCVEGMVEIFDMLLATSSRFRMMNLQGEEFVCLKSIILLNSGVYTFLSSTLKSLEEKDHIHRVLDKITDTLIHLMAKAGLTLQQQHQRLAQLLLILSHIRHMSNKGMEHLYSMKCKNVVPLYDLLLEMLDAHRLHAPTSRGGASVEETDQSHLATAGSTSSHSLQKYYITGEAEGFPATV

ERβ = ERβ (Homo sapiens, UniProt Q92731); assay: as above; assay type: binding; set-up: purchased PanVera Corporation, Madison, WI; key: semiquantitative scale of 0 to 7+; 1+: semiquantitative scale of 0 to 7+; 2+: semiquantitative scale of 0 to 7+; 3+: semiquantitative scale of 0 to 7+; 4+: semiquantitative scale of 0 to 7+; 5+: semiquantitative scale of 0 to 7+; 6+: semiquantitative scale of 0 to 7+; semiquantitative scale of 0 to 7+; details: for binding activity, ERβ and Estradiol: ERβ and Estradiol (1 µM); for binding activity, ERβ and tamoxifen: ERβ and tamoxifen (4-OH tamoxifen, 1 µM)
ERβ, sequence (Q92731 whole entry): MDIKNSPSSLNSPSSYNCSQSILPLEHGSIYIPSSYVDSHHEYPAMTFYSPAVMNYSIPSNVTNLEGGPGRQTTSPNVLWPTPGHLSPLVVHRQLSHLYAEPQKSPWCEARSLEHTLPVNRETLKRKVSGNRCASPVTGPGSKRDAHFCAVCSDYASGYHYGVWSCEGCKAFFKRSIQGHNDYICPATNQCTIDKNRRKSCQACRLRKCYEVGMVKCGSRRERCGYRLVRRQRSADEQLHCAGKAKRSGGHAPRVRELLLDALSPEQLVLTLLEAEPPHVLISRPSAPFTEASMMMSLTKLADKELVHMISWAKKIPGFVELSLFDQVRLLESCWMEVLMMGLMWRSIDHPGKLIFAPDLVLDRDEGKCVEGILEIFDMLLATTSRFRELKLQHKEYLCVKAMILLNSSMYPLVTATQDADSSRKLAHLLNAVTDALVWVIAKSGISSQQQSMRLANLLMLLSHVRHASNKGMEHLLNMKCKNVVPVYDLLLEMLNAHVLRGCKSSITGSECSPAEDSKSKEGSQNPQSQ

Sequence	binding activity, ERα and buffer (ERα)	binding activity, ERα and estradiol (ERα)	binding activity, ERα and tamoxifen (ERα)	binding activity, ERβ and Estradiol (ERβ)	binding activity, ERβ and buffer (ERβ)	binding activity, ERβ and tamoxifen (ERβ)
SSLKCLLNSNFCSR [Peptide 18E-β]	5+	6+	5+	7+	4+	1+
SSLKCLLQSSPQKQPFCSR [Peptide 19E-β]	4+	5+	3+	7+	4+	2+
SSPGSREWFKDMLSR [Peptide 14t-β]	2+	2+	7+	2+	3+	7+
SSPTGHRLLESLLLNSNSR [Peptide 8E-β]	4+	6+	3+	7+	5+	1+
SSQEEWLLPWRLASR [Peptide 8t-β]	2+	2+	2+	5+	7+	5+
SSQVWPGPWRLVESR [Peptide 14b-β]	2+	2+	3+	7+	7+	7+
SSRGLLWDLLTKDSR [Peptide 1E-β]	5+	7+	5+	7+	5+	3+
SSRLLCLLDAGQCSR [Peptide 16E-β]	3+	6+	3+	7+	6+	2+
SSRTLLEHYLLGGSR [Peptide 20E-β]	5+	5+	4+	7+	3+	2+
SSRTPILFSLLETSR [Peptide 11E-β]	6+	5+	6+	6+	5+	4+
SSSGPWRWGLSIESR [Peptide 17b-β]	2+	2+	3+	2+	5+	4+
SSSLGPWRLSELESR [Peptide 16b-β]	2+	3+	3+	4+	7+	5+
SSSMMREFFERELSR [Peptide 5b-β]	6+	6+	7+	6+	7+	7+
SSTSWLHHYLMGTSR [Peptide 8b-β]	1+	4+	2+	7+	7+	1+
SSTTMFDFFYERLSR [Peptide 6t-β]	4+	4+	6+	4+	7+	7+
SSVASREWWVRELSR [Peptide 15t-β]	3+	2+	5+	2+	6+	7+
SSVFTIMDGKVALSR [Peptide 1t-β]	3+	3+	7+	2+	3+	7+
SSWNSREFFLSQLSR [Peptide 5t-β]	3+	2+	5+	2+	2+	7+
SSWPNPTFWERQLSR [Peptide 3b-β]	5+	3+	3+	2+	5+	

Continued, values first:

binding activity, ERα and buffer (ERα)	binding activity, ERα and estradiol (ERα)	binding activity, ERα and tamoxifen (ERα)	binding activity, ERβ and Estradiol (ERβ)	binding activity, ERβ and buffer (ERβ)	binding activity, ERβ and tamoxifen (ERβ)	Sequence
6+	6+	5+	7+	5+	2+	SSLQAGSWLMHYLRGGDSR [Peptide 23E-β]
5+	4+	4+	7+	5+	2+	SSQWQAPWWYIDASR [Peptide 32E-β]
4+	5+	3+	7+	5+	2+	SSRCSSLLCEMLIQTKESR [Peptide 22E-β]
3+	3+	6+	3+	3+	7+	SSRLVPHSFWLDGLMHGSR [Peptide 21t-β]
3+	3+	2+	7+	5+	2+	SSRPSFTIPWWFDDPSRSR [Peptide 33E-β]
4+	6+	3+	7+	6+	2+	SSRTLYCHLTSSNPEWCSR [Peptide 27E-β]
4+	3+	3+	7+	3+	2+	SSTRLMCWLGSADTSHCSR [Peptide 28E-β]
4+	3+	3+	7+	6+	3+	SSTTWRCPEWYCGSR [Peptide 30E-β]
3+	2+	3+	7+	3+	2+	SSWDFRVPWWYNNSR [Peptide 31E-β]
4+	3+	4+	4+	7+	5+	SSWPGAEWFKEQLSR [Peptide 20b-β]
3+	4+	3+	7+	7+	5+	SSYDWQCPSWYCPAPPSSR [Peptide 29E-β]
